# Measured values as given in patent publication US20200079833A1 (AstraZeneca / MedImmune, published 2020).
# Starred links: 1 amine or outer side, 2 acyl side, 3 side chain; linkers in the order of their positions; H or OH if unused. Non-standard residues stand in square brackets, D forms with d. Groups on a side chain read outwards from the residue. Primed or numbered codes have the meaning given here. No end group written: not given here. *: point of attachment. γGlu = O=C(O)[C@H](CCC(=O)[*:2])N[*:1]; αMeF = C[C@](N)(Cc1ccccc1)C(=O)O; αMeK = C[C@](N)(CCCCN)C(=O)O; Lauroyl = CCCCCCCCCCCC(=O)*; αMeS = C[C@](N)(CO)C(=O)O; PEG2′ = not defined here; Aib = CC(C)(N)C(=O)O
# Target: T1, glucose-dependent insulinotropic peptide (gastric inhibitory polypeptide) receptor (GIPR), primary cAMP assay … (human, UniProt P48546 22-466)
# T1 sequence (looked up): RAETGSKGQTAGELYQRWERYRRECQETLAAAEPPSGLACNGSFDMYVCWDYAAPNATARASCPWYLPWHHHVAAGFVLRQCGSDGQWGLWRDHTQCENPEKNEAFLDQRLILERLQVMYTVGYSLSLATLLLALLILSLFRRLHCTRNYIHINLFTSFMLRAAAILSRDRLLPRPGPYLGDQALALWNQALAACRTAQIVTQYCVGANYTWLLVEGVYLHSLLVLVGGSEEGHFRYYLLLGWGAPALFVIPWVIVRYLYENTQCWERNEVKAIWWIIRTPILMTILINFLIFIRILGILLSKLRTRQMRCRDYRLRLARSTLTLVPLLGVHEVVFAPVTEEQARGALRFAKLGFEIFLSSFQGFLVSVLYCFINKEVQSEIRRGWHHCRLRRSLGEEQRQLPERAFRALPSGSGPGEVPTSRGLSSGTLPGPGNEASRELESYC
# Test: cell-based or functional assay
Binder,"cAMP Primary assay EC50, n1 [nM]","cAMP Primary assay EC50, n2 [nM]"
H[Aib]EGS[αMeF]TSDV[αMeS]SK([PEG2′-PEG2′-γGlu-Lauroyl])LEK([PEG2′-PEG2′-γGlu-Lauroyl])EAA[αMeK]EFIK([PEG2′-PEG2′-γGlu-Lauroyl])FVVEGG-NH2 [SEQ ID NO: 447],19.7,19.7
H[Aib]EGS[αMeF]TSDK([PEG2′-PEG2′-γGlu-Lauroyl])SSYLEGEK([PEG2′-PEG2′-γGlu-Lauroyl])A[αMeK]EFIK([PEG2′-PEG2′-γGlu-Lauroyl])FVVEGG-NH2 [SEQ ID NO: 441],19.5,19.5
H[Aib]EGS[αMeF]TSDVSK([PEG2′-PEG2′-γGlu-Lauroyl])YLEGK([PEG2′-PEG2′-γGlu-Lauroyl])AA[αMeK]EFIK([PEG2′-PEG2′-γGlu-Lauroyl])FVVEGG-NH2 [SEQ ID NO: 444],19.7,19.7
H[Aib]EGS[αMeF]TSDK([PEG2′-PEG2′-γGlu-Lauroyl])SSYLEGEK([PEG2′-PEG2′-γGlu-Lauroyl])A[αMeK]EFIAK([PEG2′-PEG2′-γGlu-Lauroyl])VVEGG-NH2 [SEQ ID NO: 457],19.8,19.8
H[Aib]EGS[αMeF]TSDVSK([PEG2′-PEG2′-γGlu-Lauroyl])YLEGEAA[αMeK]K([PEG2′-PEG2′-γGlu-Lauroyl])FIK([PEG2′-PEG2′-γGlu-Lauroyl])FVVEGG-NH2 [SEQ ID NO: 446],19.7,19.7

# Next, values leading:
"cAMP Primary assay EC50, n1 [nM]","cAMP Primary assay EC50, n2 [nM]",Binder
19.4,19.4,H[Aib]EGS[αMeF]TSDVSK([PEG2′-PEG2′-γGlu-Lauroyl])YLEK([PEG2′-PEG2′-γGlu-Lauroyl])EAA[αMeK]EFIK([PEG2′-PEG2′-γGlu-Lauroyl])FVVEGG-NH2 [SEQ ID NO: 443]
19.7,19.7,H[Aib]EGS[αMeF]TSDK([PEG2′-PEG2′-γGlu-Lauroyl])SSYLEGK([PEG2′-PEG2′-γGlu-Lauroyl])AA[αMeK]EFIK([PEG2′-PEG2′-γGlu-Lauroyl])FVVEGG-NH2 [SEQ ID NO: 440]
19.7,19.7,H[Aib]EGS[αMeF]TSDK([PEG2′-PEG2′-γGlu-Lauroyl])SSYLEGEAA[αMeK]K([PEG2′-PEG2′-γGlu-Lauroyl])FIK([PEG2′-PEG2′-γGlu-Lauroyl])FVVEGG-NH2 [SEQ ID NO: 442]
19.9,19.9,H[Aib]EGS[αMeF]TSDV[αMeS]SK([PEG2′-PEG2′-γGlu-Lauroyl])LEGK([PEG2′-PEG2′-γGlu-Lauroyl])AA[αMeK]EFIK([PEG2′-PEG2′-γGlu-Lauroyl])FVVEGG-NH2 [SEQ ID NO: 448]

# Target: GLP-1 receptor (GLP-1R), primary cAMP assay cell line (human, UniProt P43220 24-463)
# Test: cell-based or functional assay
Binder,"cAMP Primary assay EC50, Mean pM GLP-1R [pM]","cAMP Primary assay EC50, n1 [nM]","cAMP Primary assay EC50, n2 [nM]"
H[Aib]EGS[αMeF]TSDV[αMeS]SK([PEG2′-PEG2′-γGlu-Lauroyl])LEK([PEG2′-PEG2′-γGlu-Lauroyl])EAA[αMeK]EFIK([PEG2′-PEG2′-γGlu-Lauroyl])FVVEGG-NH2 [SEQ ID NO: 447],150,0.123,0.176
H[Aib]EGS[αMeF]TSDK([PEG2′-PEG2′-γGlu-Lauroyl])SSYLEGEK([PEG2′-PEG2′-γGlu-Lauroyl])A[αMeK]EFIK([PEG2′-PEG2′-γGlu-Lauroyl])FVVEGG-NH2 [SEQ ID NO: 441],176,0.11,0.241
H[Aib]EGS[αMeF]TSDVSK([PEG2′-PEG2′-γGlu-Lauroyl])YLEGK([PEG2′-PEG2′-γGlu-Lauroyl])AA[αMeK]EFIK([PEG2′-PEG2′-γGlu-Lauroyl])FVVEGG-NH2 [SEQ ID NO: 444],144,0.125,0.162
H[Aib]EGS[αMeF]TSDK([PEG2′-PEG2′-γGlu-Lauroyl])SSYLEGEK([PEG2′-PEG2′-γGlu-Lauroyl])A[αMeK]EFIAK([PEG2′-PEG2′-γGlu-Lauroyl])VVEGG-NH2 [SEQ ID NO: 457],142,0.127,0.156
H[Aib]EGS[αMeF]TSDVSK([PEG2′-PEG2′-γGlu-Lauroyl])YLEGEAA[αMeK]K([PEG2′-PEG2′-γGlu-Lauroyl])FIK([PEG2′-PEG2′-γGlu-Lauroyl])FVVEGG-NH2 [SEQ ID NO: 446],107,0.0873,0.127

# Now from value to binder:
"cAMP Primary assay EC50, Mean pM GLP-1R [pM]","cAMP Primary assay EC50, n1 [nM]","cAMP Primary assay EC50, n2 [nM]",Binder
223,0.192,0.254,H[Aib]EGS[αMeF]TSDVSK([PEG2′-PEG2′-γGlu-Lauroyl])YLEK([PEG2′-PEG2′-γGlu-Lauroyl])EAA[αMeK]EFIK([PEG2′-PEG2′-γGlu-Lauroyl])FVVEGG-NH2 [SEQ ID NO: 443]
130,0.0967,0.164,H[Aib]EGS[αMeF]TSDK([PEG2′-PEG2′-γGlu-Lauroyl])SSYLEGK([PEG2′-PEG2′-γGlu-Lauroyl])AA[αMeK]EFIK([PEG2′-PEG2′-γGlu-Lauroyl])FVVEGG-NH2 [SEQ ID NO: 440]
82,0.0609,0.103,H[Aib]EGS[αMeF]TSDK([PEG2′-PEG2′-γGlu-Lauroyl])SSYLEGEAA[αMeK]K([PEG2′-PEG2′-γGlu-Lauroyl])FIK([PEG2′-PEG2′-γGlu-Lauroyl])FVVEGG-NH2 [SEQ ID NO: 442]
92.4,0.0788,0.106,H[Aib]EGS[αMeF]TSDV[αMeS]SK([PEG2′-PEG2′-γGlu-Lauroyl])LEGK([PEG2′-PEG2′-γGlu-Lauroyl])AA[αMeK]EFIK([PEG2′-PEG2′-γGlu-Lauroyl])FVVEGG-NH2 [SEQ ID NO: 448]

# Target: glucagon receptor (GCGR), primary cAMP assay cell line (human, UniProt P47871 26-477)
# Sequence (P47871 26-477): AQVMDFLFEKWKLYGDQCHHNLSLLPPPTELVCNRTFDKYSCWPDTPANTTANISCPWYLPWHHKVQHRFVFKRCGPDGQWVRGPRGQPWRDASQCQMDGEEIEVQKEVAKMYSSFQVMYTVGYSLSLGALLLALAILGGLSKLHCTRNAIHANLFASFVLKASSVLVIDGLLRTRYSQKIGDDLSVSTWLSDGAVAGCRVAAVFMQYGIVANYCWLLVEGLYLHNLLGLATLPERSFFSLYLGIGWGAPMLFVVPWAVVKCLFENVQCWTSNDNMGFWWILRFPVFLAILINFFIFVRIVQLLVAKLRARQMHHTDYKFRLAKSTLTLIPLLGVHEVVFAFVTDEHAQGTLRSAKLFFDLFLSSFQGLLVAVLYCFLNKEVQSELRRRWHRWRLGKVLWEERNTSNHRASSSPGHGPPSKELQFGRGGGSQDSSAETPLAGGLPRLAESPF
# Test: cell-based or functional assay
Binder,"cAMP Primary assay EC50, n1 [nM]","cAMP Primary assay EC50, n2 [nM]"
H[Aib]EGS[αMeF]TSDV[αMeS]SK([PEG2′-PEG2′-γGlu-Lauroyl])LEK([PEG2′-PEG2′-γGlu-Lauroyl])EAA[αMeK]EFIK([PEG2′-PEG2′-γGlu-Lauroyl])FVVEGG-NH2 [SEQ ID NO: 447],19.7,19.7
H[Aib]EGS[αMeF]TSDK([PEG2′-PEG2′-γGlu-Lauroyl])SSYLEGEK([PEG2′-PEG2′-γGlu-Lauroyl])A[αMeK]EFIK([PEG2′-PEG2′-γGlu-Lauroyl])FVVEGG-NH2 [SEQ ID NO: 441],19.5,19.5
H[Aib]EGS[αMeF]TSDVSK([PEG2′-PEG2′-γGlu-Lauroyl])YLEGK([PEG2′-PEG2′-γGlu-Lauroyl])AA[αMeK]EFIK([PEG2′-PEG2′-γGlu-Lauroyl])FVVEGG-NH2 [SEQ ID NO: 444],19.7,19.7
H[Aib]EGS[αMeF]TSDK([PEG2′-PEG2′-γGlu-Lauroyl])SSYLEGEK([PEG2′-PEG2′-γGlu-Lauroyl])A[αMeK]EFIAK([PEG2′-PEG2′-γGlu-Lauroyl])VVEGG-NH2 [SEQ ID NO: 457],19.8,19.8
H[Aib]EGS[αMeF]TSDVSK([PEG2′-PEG2′-γGlu-Lauroyl])YLEGEAA[αMeK]K([PEG2′-PEG2′-γGlu-Lauroyl])FIK([PEG2′-PEG2′-γGlu-Lauroyl])FVVEGG-NH2 [SEQ ID NO: 446],19.7,19.7

# The next lines start with the values.
"cAMP Primary assay EC50, n1 [nM]","cAMP Primary assay EC50, n2 [nM]",Binder
19.4,19.4,H[Aib]EGS[αMeF]TSDVSK([PEG2′-PEG2′-γGlu-Lauroyl])YLEK([PEG2′-PEG2′-γGlu-Lauroyl])EAA[αMeK]EFIK([PEG2′-PEG2′-γGlu-Lauroyl])FVVEGG-NH2 [SEQ ID NO: 443]
19.7,19.7,H[Aib]EGS[αMeF]TSDK([PEG2′-PEG2′-γGlu-Lauroyl])SSYLEGK([PEG2′-PEG2′-γGlu-Lauroyl])AA[αMeK]EFIK([PEG2′-PEG2′-γGlu-Lauroyl])FVVEGG-NH2 [SEQ ID NO: 440]
19.7,19.7,H[Aib]EGS[αMeF]TSDK([PEG2′-PEG2′-γGlu-Lauroyl])SSYLEGEAA[αMeK]K([PEG2′-PEG2′-γGlu-Lauroyl])FIK([PEG2′-PEG2′-γGlu-Lauroyl])FVVEGG-NH2 [SEQ ID NO: 442]
19.9,19.9,H[Aib]EGS[αMeF]TSDV[αMeS]SK([PEG2′-PEG2′-γGlu-Lauroyl])LEGK([PEG2′-PEG2′-γGlu-Lauroyl])AA[αMeK]EFIK([PEG2′-PEG2′-γGlu-Lauroyl])FVVEGG-NH2 [SEQ ID NO: 448]
